Measurements reported in IntAct's records for PubMed 25910212.

B1: Phakinin (Homo sapiens), Q13515 (parent)
chain: MSERRVVVDLPTSASSSMPLQRRRASFRGPRSSSSLESPPASRTNAMSGLVRAPGVYVGTAPSGCIGGLGARVTRRALGISSVFLQGLRSSGLATVPAPGLERDHGAVEDLGGCLVEYMAKVHALEQVSQELETQLRMHLESKATRSGNWGALRASWASSCQQVGEAVLENARLMLQTETIQAGADDFKERYENEQPFRKAAEEEINSLYKVIDEANLTKMDLESQIESLKEELGSLSRNYEEDVKLLHKQLAGCELEQMDAPIGTGLDDILETIRIQWERDVEKNRVEAGALLQAKQQAEVAHMSQTQEEKLAAALRVELHNTSCQVQSLQAETESLRALKRGLENTLHDAKHWHDMELQNLGAVVGRLEAELREIRAEAEQQQQERAHLLARKCQLQKDVASYHALLDREESG
partner: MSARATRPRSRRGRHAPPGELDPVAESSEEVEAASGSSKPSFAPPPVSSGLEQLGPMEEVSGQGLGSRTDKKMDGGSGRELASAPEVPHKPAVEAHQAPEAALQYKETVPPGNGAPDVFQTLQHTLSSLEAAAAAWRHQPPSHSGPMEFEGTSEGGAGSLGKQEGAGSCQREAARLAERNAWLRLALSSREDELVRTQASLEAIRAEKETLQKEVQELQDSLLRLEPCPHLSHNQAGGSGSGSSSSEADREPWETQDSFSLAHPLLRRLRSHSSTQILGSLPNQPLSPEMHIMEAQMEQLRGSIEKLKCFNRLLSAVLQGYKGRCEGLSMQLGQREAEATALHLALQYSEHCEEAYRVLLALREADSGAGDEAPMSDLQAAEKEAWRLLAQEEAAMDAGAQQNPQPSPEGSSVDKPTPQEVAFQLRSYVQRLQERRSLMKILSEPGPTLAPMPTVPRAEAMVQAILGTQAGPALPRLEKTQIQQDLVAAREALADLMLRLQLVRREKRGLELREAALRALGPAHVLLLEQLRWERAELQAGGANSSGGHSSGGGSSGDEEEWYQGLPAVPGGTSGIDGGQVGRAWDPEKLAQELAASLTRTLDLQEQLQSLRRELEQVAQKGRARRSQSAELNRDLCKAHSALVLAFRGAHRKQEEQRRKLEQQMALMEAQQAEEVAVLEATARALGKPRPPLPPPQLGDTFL
B2: Cytidine deaminase (Homo sapiens), P32320 (parent)
chain: MAQKRPACTLKPECVQQLLVCSQEAKKSAYCPYSHFPVGAALLTQEGRIFKGCNIENACYPLGICAERTAIQKAVSEGYKDFRAIAIASDMQDDFISPCGACRQVMREFGTNWPVYMTKPDGTYIVMTVQELLPSSFGPEDLQKTQ
partner: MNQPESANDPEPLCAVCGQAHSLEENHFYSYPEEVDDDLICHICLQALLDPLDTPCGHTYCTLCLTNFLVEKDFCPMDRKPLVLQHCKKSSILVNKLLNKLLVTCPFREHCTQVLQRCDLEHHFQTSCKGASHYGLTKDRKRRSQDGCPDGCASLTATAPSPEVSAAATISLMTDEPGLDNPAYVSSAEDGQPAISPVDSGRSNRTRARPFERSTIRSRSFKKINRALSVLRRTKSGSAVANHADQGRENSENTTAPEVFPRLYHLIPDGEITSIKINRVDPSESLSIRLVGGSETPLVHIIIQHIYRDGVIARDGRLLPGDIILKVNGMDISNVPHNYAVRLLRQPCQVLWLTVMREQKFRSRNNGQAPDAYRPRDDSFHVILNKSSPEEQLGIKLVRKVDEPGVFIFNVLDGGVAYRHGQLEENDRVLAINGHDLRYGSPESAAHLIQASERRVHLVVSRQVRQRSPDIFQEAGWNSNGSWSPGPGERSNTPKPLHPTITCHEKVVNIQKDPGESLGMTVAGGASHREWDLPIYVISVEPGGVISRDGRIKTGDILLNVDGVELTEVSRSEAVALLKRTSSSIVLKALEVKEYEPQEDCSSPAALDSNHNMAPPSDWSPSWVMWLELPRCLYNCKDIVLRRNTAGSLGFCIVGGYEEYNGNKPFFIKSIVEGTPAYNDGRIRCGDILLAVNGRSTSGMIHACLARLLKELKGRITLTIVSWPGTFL
B3: Myelin proteolipid protein (Homo sapiens), P60201-2 (parent)
chain: MGLLECCARCLVGAPFASLVATGLCFFGVALFCGCGHEALTGTEKLIETYFSKNYQDYEYLINVIHAFQYVIYGTASFFFLYGALLLAEGFYTTGAVRQIFGDYKTTICGKGLSATFVGITYALTVVWLLVFACSAVPVYIYFNTWTTCQSIAFPSKTSASIGSLCADARMYGVLPWNAFPGKVCGSNLLSICKTAEFQMTFHLFIAAFVGAAATLVSLLTFMIAATYNFAVLKLMGRGTKF
partner: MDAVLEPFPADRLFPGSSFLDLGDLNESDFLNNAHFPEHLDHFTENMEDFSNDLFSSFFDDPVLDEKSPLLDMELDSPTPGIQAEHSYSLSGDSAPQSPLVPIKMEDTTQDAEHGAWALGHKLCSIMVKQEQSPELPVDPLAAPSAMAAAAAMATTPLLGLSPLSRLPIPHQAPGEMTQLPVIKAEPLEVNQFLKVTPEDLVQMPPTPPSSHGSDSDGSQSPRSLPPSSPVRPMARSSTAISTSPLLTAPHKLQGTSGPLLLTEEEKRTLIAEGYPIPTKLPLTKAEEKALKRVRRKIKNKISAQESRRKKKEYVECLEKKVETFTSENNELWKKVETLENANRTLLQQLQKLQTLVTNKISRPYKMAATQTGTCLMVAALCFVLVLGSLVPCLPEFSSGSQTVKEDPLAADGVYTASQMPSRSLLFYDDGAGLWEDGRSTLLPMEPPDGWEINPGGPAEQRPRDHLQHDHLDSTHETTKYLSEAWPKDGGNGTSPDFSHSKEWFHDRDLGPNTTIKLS
B4: Glutathione S-transferase A2 (Homo sapiens), P09210 (parent)
chain: MAEKPKLHYSNIRGRMESIRWLLAAAGVEFEEKFIKSAEDLDKLRNDGYLMFQQVPMVEIDGMKLVQTRAILNYIASKYNLYGKDIKEKALIDMYIEGIADLGEMILLLPFSQPEEQDAKLALIQEKTKNRYFPAFEKVLKSHGQDYLVGNKLSRADIHLVELLYYVEELDSSLISSFPLLKALKTRISNLPTVKKFLQPGSPRKPPMDEKSLEESRKIFRF
partner: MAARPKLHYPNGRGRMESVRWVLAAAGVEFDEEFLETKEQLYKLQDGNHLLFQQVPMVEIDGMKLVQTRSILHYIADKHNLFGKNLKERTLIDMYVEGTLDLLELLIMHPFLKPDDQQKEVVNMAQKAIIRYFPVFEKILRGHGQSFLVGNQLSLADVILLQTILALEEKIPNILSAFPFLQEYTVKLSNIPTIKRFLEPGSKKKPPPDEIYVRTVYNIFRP
B5: Vitamin D3 receptor (Homo sapiens), P11473 (parent)
chain: MEAMAASTSLPDPGDFDRNVPRICGVCGDRATGFHFNAMTCEGCKGFFRRSMKRKALFTCPFNGDCRITKDNRRHCQACRLKRCVDIGMMKEFILTDEEVQRKREMILKRKEEEALKDSLRPKLSEEQQRIIAILLDAHHKTYDPTYSDFCQFRPPVRVNDGGGSHPSRPNSRHTPSFSGDSSSSCSDHCITSSDMMDSSSFSNLDLSEEDSDDPSVTLELSQLSMLPHLADLVSYSIQKVIGFAKMIPGFRDLTSEDQIVLLKSSAIEVIMLRSNESFTMDDMSWTCGNQDYKYRVSDVTKAGHSLELIEPLIKFQVGLKKLNLHEEEHVLLMAICIVSPDRPGVQDAALIEAIQDRLSNTLQTYIRCRHPPPGSHLLYAKMIQKLADLRSLNEEHSKQYRCLSFQPECSMKLTPLVLEVFGNEIS
B6: Glial cell line-derived neurotrophic factor (Homo sapiens), P39905 (parent)
chain: MKLWDVVAVCLVLLHTASAFPLPAGKRPPEAPAEDRSLGRRRAPFALSSDSNMPEDYPDQFDDVMDFIQATIKRLKRSPDKQMAVLPRRERNRQAAAANPENSRGKGRRGQRGKNRGCVLTAIHLNVTDLGLGYETKEELIFRYCSGSCDAAETTYDKILKNLSRNRRLVSDKVGQACCRPIAFDDDLSFLDDNLVYHILRKHSAKRCGCI
B7: Beta-crystallin A4 (Homo sapiens), P53673 (parent)
chain: MTLQCTKSAGPWKMVVWDEDGFQGRRHEFTAECPSVLELGFETVRSLKVLSGAWVGFEHAGFQGQQYILERGEYPSWDAWGGNTAYPAERLTSFRPAACANHRDSRLTIFEQENFLGKKGELSDDYPSLQAMGWEGNEVGSFHVHSGAWVCSQFPGYRGFQYVLECDHHSGDYKHFREWGSHAPTFQVQSIRRIQQ
partner: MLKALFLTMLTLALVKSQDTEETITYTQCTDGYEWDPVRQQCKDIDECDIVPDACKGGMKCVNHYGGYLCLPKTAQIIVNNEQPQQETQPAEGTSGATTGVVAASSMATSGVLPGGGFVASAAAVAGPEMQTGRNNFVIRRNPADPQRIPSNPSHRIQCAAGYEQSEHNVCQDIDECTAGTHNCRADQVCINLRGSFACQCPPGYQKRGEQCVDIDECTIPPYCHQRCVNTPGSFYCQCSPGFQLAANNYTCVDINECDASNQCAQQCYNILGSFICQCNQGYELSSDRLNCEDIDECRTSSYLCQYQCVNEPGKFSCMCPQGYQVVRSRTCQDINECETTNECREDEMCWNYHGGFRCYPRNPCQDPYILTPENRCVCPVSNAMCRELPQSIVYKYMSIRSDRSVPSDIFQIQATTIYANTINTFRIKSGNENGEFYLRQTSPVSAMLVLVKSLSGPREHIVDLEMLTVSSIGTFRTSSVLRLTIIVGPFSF
B8: DNA ligase 4 (Homo sapiens), P49917 (parent)
chain: MAASQTSQTVASHVPFADLCSTLERIQKSKGRAEKIRHFREFLDSWRKFHDALHKNHKDVTDSFYPAMRLILPQLERERMAYGIKETMLAKLYIELLNLPRDGKDALKLLNYRTPTGTHGDAGDFAMIAYFVLKPRCLQKGSLTIQQVNDLLDSIASNNSAKRKDLIKKSLLQLITQSSALEQKWLIRMIIKDLKLGVSQQTIFSVFHNDAAELHNVTTDLEKVCRQLHDPSVGLSDISITLFSAFKPMLAAIADIEHIEKDMKHQSFYIETKLDGERMQMHKDGDVYKYFSRNGYNYTDQFGASPTEGSLTPFIHNAFKADIQICILDGEMMAYNPNTQTFMQKGTKFDIKRMVEDSDLQTCYCVFDVLMVNNKKLGHETLRKRYEILSSIFTPIPGRIEIVQKTQAHTKNEVIDALNEAIDKREEGIMVKQPLSIYKPDKRGEGWLKIKPEYVSGLMDELDILIVGGYWGKGSRGGMMSHFLCAVAEKPPPGEKPSVFHTLSRVGSGCTMKELYDLGLKLAKYWKPFHRKAPPSSILCGTEKPEVYIEPCNSVIVQIKAAEIVPSDMYKTGCTLRFPRIEKIRDDKEWHECMTLDDLEQLRGKASGKLASKHLYIGGDDEPQEKKRKAAPKMKKVIGIIEHLKAPNLTNVNKISNIFEDVEFCVMSGTDSQPKPDLENRIAEFGGYIVQNPGPDTYCVIAGSENIRVKNIILSNKHDVVKPAWLLECFKTKSFVPWQPRFMIHMCPSTKEHFAREYDCYGDSYFIDTDLNQLKEVFSGIKNSNEQTPEEMASLIADLEYRYSWDCSPLSMFRRHTVYLDSYAVINDLSTKNEGTRLAIKALELRFHGAKVVSCLAEGVSHVIIGEDHSRVADFKAFRRTFKRKFKILKESWVTDSIDKCELQEENQYLI

Variants of: B1
Details: with usbp1_human USHBP1, Q8N6Y0

effect of a mutation on the interaction	Variant
with no effect	R339H
with no effect	A407D

Variants of: B2
Details: with lnx1_human LNX1, Q8TBB1

effect of a mutation on the interaction	Variant
with no effect	A70T

Variants of: B3
Details: with cr3l1_human CREB3L1, Q96BA8

Variant	effect of a mutation on the interaction
P15L	disrupting interaction strength
L87P	disrupting interaction strength

More lines, now with the values ahead:

effect of a mutation on the interaction	Variant
disrupting interaction strength	A213E
disrupting interaction strength	W128L

Variants of: B4
Details: with gsta4_human GSTA4, O15217

effect of a mutation on the interaction	Variant
with no effect	P110S

Variants of: B5
Details: with meox2_human MEOX2, P50222
Chain of meox2_human MEOX2, P50222 (P50222 whole entry): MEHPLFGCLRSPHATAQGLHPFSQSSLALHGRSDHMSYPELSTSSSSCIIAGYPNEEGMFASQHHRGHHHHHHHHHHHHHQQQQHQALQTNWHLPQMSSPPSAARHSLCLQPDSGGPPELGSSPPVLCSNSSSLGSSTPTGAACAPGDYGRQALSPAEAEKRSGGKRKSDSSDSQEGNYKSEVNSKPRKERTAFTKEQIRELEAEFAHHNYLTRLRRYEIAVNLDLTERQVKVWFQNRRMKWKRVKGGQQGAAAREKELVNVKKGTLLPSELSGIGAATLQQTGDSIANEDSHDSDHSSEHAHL

effect of a mutation on the interaction	Variant
disrupting interaction strength	E329K
with no effect	I268T
with no effect	G33D
disrupting interaction strength	C190W

Variants of: B6
Details: with AGTRAP

Variant	effect of a mutation on the interaction
R93W	with no effect
P21S	with no effect

More lines, now with the values ahead:

effect of a mutation on the interaction	Variant
with no effect	D150N
with no effect	T154S

Variants of: B7
Details: with fbln3_human EFEMP1, Q12805

effect of a mutation on the interaction	Variant
disrupting interaction strength	F94S
disrupting interaction strength	L69P
disrupting interaction strength	V36M

Variants of: B8
Details: with xrcc4_human XRCC4, Q13426
Chain of xrcc4_human XRCC4, Q13426 (Q13426 whole entry): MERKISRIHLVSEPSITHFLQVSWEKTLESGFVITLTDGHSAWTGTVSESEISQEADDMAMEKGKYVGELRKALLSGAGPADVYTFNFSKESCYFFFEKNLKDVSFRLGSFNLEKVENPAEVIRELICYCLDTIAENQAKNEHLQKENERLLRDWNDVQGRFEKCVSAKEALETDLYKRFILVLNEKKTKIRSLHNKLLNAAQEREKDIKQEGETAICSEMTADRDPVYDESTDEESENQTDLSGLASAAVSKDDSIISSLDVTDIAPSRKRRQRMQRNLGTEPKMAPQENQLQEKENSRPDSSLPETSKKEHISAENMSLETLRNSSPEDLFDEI

effect of a mutation on the interaction	Variant
with no effect	A857T
